The target of test [1] is T1, GPNMB (CG56972) as expressed by human cell lines (human, UniProt Q14956 23-492).
T1 construct: Endogenous or transfected full-length protein on cells (FACS, killing assays) or in cell lysates (immunoprecipitation, blot); also called native GPNMB protein
T1 sequence: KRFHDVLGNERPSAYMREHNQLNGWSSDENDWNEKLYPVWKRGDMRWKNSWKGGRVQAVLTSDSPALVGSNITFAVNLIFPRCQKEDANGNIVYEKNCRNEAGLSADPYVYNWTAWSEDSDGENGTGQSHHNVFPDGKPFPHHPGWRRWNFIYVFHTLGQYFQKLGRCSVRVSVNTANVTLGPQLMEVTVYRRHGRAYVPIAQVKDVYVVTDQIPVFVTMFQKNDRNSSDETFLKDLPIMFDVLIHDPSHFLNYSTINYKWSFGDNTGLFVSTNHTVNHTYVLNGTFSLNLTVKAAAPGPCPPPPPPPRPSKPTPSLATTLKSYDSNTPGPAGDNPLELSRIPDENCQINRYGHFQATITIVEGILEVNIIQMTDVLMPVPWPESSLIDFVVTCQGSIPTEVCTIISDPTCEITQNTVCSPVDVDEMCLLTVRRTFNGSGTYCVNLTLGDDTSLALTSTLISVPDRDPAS
In words: FACS on SU-DHL-1 cells, antibody 1 ug/mL.
Method: (§1) Lymphoma or leukemia derived cells were washed twice with ice-cold FACS buffer and resuspended at 1 million cells per assay tube. […] Cells were then washed 2-3 times and resuspended in 1 mL of ice-cold FACS buffer. R-PE-conjugated goat anti-human antibody at 1:100 dilution was added and cells were incubated on ice for 30 min. Cells were washed 3 times with 1 mL of ice-cold FACS buffer, fixed with 0.5-1 mL of 1% formaldehyde in PBS and analyzed by Flow Cytometry.

The target in test [2] is T1, GPNMB (CG56972) as expressed by human …. Kind of test: FACS on SF-295 cells, CR011 10 ug/mL.
Method: (§2) Quantitative analysis of CG56972 expression on the surface of cell lines was determined by flow cytometry (FACS). […] Cells were fixed in 1% paraformaldehyde/PBS and examined on a Becton Dickinson FACSCalibur flow cytometer. Data analysis was performed with Becton Dickinson Cell Quest software version 3.3 and the geometric mean fluorescence intensity ratio (GMR) was determined for each cell type.
Test [3] has the same target. In words: FACS on SW 1783 cells, CR011 10 ug/mL.
Method: as §2
For test [4] the target is unchanged. In words: FACS on KG1a cells, antibody 1 ug/mL.
Method: as §1
The target is the same in test [5]. In words: FACS on SK-Mel 24 cells.
For test [6] the target is unchanged. In words: FACS on HL-60 cells, antibody 1 ug/mL.
Test [7] has the same target. Kind of test: FACS on CCRF-CEM cells, antibody 1 ug/mL.
Method: as §1
The target is the same in test [8]. Kind of test: FACS on UACC-62 cells, antibody 1 ug/mL.
Method: The specificity of anti-GPNMB antibodies to cell membrane-bound GPNMB protein expressed by melanoma cancer cell line, UACC-62 was analyzed by FACS analysis. […] Cells were washed twice with PBS (Ca and Mg free), incubated with Versene at 37° C. until cells detached, counted and aliquoted at 1 million cells per assay tube. Cells were then washed twice and resuspended in ice-cold FACS buffer (0.01 M HEPES, 0.15M NaCl, 0.1% NaN₃ and 4% FBS). Primary antibody at 1 μg/mL was added to the cells. Cells were incubated on ice for 30 min, washed 2-3 times and resuspended in 1 mL of ice-cold FACS buffer. R-PE-conjugated goat anti-human antibody (Jackson ImmunoResearch Laboratory) at 1:100 dilution was added and cells were incubated on ice for 30 min. After washing 3 times with 1 mL of ice-cold FACS buffer, cells were fixed with 0.5-1 mL of 1% formaldehyde in PBS and analyzed by flow cytometry.
The target is the same in test [9]. In words: FACS on HH cells, antibody 1 ug/mL.
For test [10] the target is unchanged. In words: FACS on WSU-NH2 cells, antibody 1 ug/mL.
Method: as §1
For test [11] the target is unchanged. In words: FACS on WM115 cells.
For test [12] the target is unchanged. In words: FACS on U-251 cells, CR011 10 ug/mL.
Method: as §2
Test [13] has the same target. Kind of test: FACS on SU-DHL-4 cells, antibody 1 ug/mL.
For test [14] the target is unchanged. In words: FACS on DEL cells, antibody 1 ug/mL.
Method: as §1
The target is the same in test [15]. In words: FACS on UACC-257 cells.
For test [16] the target is unchanged. Kind of test: FACS on HUT-78 cells, antibody 1 ug/mL.
Test [17] shares this target. Kind of test: FACS on D392-MG cells, CR011 10 ug/mL.
Method: as §2
Test [18] has the same target. In words: FACS on MV4-11 cells, antibody 1 ug/mL.
For test [19] the target is unchanged. Kind of test: FACS on PL-21 cells, antibody 1 ug/mL.
Method: as §1
For test [20] the target is unchanged. In words: FACS on U-118-MG cells, CR011 10 ug/mL.
Method: as §2
(§3) Geometric Mean ratios (GMR) were determined by flow cytometric analysis.
Test [21] has the same target. In words: FACS on SK-Mel 2 cells.
Test [22] shares this target. Kind of test: FACS on SF-539 cells, CR011 10 ug/mL.
Method: as §2, §3
Test [23] shares this target. Kind of test: FACS on K562 cells, antibody 1 ug/mL.
Method: as §1
For test [24] the target is unchanged. Kind of test: FACS on SF-268 cells, CR011 10 ug/mL.
Method: as §2, §3

One molecule from patent US20130244255A1 (published 2013) can be followed below.

B1: CR011 mAb 1.15.1 (IgG2) (antibody)
heavy: QVQLQESGPGLVKPSQTLSLTCTVSGGSISSFNYYWSWIRHHPGKGLEWIGYIYYSGSTYSNPSLKSRVTISVDTSKNQFSLTLSSVTAADTAVYYCARGYNWNYFDYWGQGTLVTVSSASTKGPSVFPLAPCSRSTSESTAALGCLVKDYFPEPVTVSWNSGALTSGVHTFPAVLQSSGLYSLSSVVTVPSSNFGTQTYTCNVDHKPSNTKVDKTVERKCCVECPPCPAPPVAGPSVFLFPPKPKDTLMISRTPEVTCVVVDVSHEDPEVQFNWYVDGVEVHNAKTKPREEQFNSTFRVVSVLTVVHQDWLNGKEYKCKVSNKGLPAPIEKTISKTKGQPREPQVYTLPPSREEMTKNQVSLTCLVKGFYPSDIAVEWESNGQPENNYKTTPPMLDSDGSFFLYSKLTVDKSRWQQGNVFSCSVMHEALHNHYTQKSLSLSPGK
VL: not shown
notes: also called CR011.1.15.1; CR011 IgG2
In the case of B1, the “Geo Mean Ratio” value in test [1] turned out to be 4.8 ratio; in [4], 2.7 ratio; in [6], 2.3 ratio; in test [7], 10.9 ratio; in test [9], 1 ratio; in test [10], 1 ratio. Moreover, the “Geo Mean Ratio” value in test [13] is 1.8 ratio; in test [14] it was 7.9 ratio; in test [16] it was 1.5 ratio; in test [18], 1.9 ratio; in test [19], 12 ratio; in test [23], 2.8 ratio. Moreover, the “CR011 Fold Shift (GMR)” value in [2] came out at 1.8 fold; in test [3] it was 1.1 fold; in [12], 1.9 fold; in test [17], 3.1 fold; in test [20], 7.4 fold; in test [22], 5.4 fold. For the same molecule, the “CR011 Fold Shift (GMR)” value in [24] is 1.5 fold. Besides, the “Geo Mean Ratio (relative to isotype)” value in test [5] was 1.9 ratio; in [11], 1.3 ratio; in test [15], 7 ratio; in test [21], 16.5 ratio. The “Geo Mean Ratio (relative to pK16)” value in test [8] turned out to be 7.89 ratio.
